Like-named read-outs stand apart in the source and are kept apart here. Numbered stars: 1 amine (or outer) side, 2 acyl side, 3 side chain; on linkers, the order of the positions; unused ones are H or OH. Square brackets hold non-standard residues; d marks the D form. Side chains are listed from the residue outwards. Ends that are not written are not given here. γGlu = O=C(O)[C@H](CCC(=O)[*:2])N[*:1]; AEEA = NCCOCCOCC(=O)O; Aib = CC(C)(N)C(=O)O
Legend:
Test in all cases: cell-based or functional assay
[1] = target: T1, human glucagon-like peptide-1 receptor (human, UniProt P43220)
[2] = target: T2, human glucose-dependent insulinotropic peptide receptor (human, UniProt P48546)
T2 sequence: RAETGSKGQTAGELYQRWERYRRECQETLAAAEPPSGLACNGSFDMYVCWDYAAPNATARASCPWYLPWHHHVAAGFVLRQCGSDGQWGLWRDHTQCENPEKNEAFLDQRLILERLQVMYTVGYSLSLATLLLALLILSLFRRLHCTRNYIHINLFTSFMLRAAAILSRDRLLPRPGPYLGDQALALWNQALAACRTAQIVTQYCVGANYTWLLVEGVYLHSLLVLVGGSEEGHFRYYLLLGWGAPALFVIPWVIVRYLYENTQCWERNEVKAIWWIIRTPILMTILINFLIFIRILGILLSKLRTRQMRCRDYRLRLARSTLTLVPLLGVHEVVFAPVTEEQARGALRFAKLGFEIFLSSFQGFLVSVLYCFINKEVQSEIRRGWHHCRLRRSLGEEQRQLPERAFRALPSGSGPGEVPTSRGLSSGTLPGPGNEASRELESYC

[3] = target: T1, human glucagon-like peptide-1 receptor; remark: listed apart in the source
[4] = target: T2, human glucose-dependent insulinotropic …; remark: listed apart in the source

Binder	Activity for human GLP-1R (EC50 nM), cAMP HTRF [1]	Activity for human GIPR (EC50 nM), cAMP HTRF [2]	Activity for human GLP-1R (EC50 nM), cAMP HTRF [3]	Activity for human GIPR (EC50 nM), cAMP HTRF [4]
Y[Aib]EGTFTSDYSIYLEKIAAQEFVNWLIAGGPSSGAPPPSK([AEEA-AEEA-γGlu-C20‑OH])-NH2 [Compound No. 83]	0.028 nM	0.032 nM		
Y[Aib]EGTFTSDYSIYLEKIAAK([AEEA-AEEA-γGlu-C20‑OH])EFVNWLLAGGPSSGAPPPS-NH2 [Compound No. 75]	0.2 nM	0.16 nM		
Y[Aib]EGTFTSDYSIYLDKIAAK([AEEA-AEEA-γGlu-C18‑OH])EFVNWLLAGGPSSGAPPPS-NH2 [Compound No. 60]	0.2 nM	0.02 nM		
H-Y[Aib]EGTFTSDYSIYLEKEAAKEFVNWLLAGGPSSGAPPPS-NH2 (not fully specified (residue 20); printed as H-YAibEGTFTSDYSIYLEKEAAK(OEG-OEG-yGlu-C18-OH)EFVNWLLAG / GPSSGAPPPS-NH2) [Compound No. 27]	0.12 nM	0.11 nM		
Y[Aib]EGTFTSDYSIYLEKIAAQEFVNWLIAGGPSSGAPPPS-NH2 (N-terminus assumed; SMILES CC[C@H](C)[C@H](NC(=O)[C@H](CCCCN)NC(=O)[C@H](CCC(=O)O)NC(=O)[C@H](CC(C)C)NC(=O)[C@H](Cc1ccc(O)cc1)NC(=O)[C@@H](NC(=O)[C@H](CO)NC(=O)[C@H](Cc1ccc(O)cc1)NC(=O)[C@H](CC(=O)O)NC(=O)[C@H](CO)NC(=O)[C@@H](NC(=O)[C@H](Cc1ccccc1)NC(=O)[C@@H](NC(=O)CNC(=O)[C@H](CCC(=O)O)NC(=O)C(C)(C)NC(=O)[C@@H](N)Cc1ccc(O)cc1)[C@@H](C)O)[C@@H](C)O)[C@@H](C)CC)C(=O)N[C@@H](C)C(=O)N[C@@H](C)C(=O)N[C@@H](CCC(N)=O)C(=O)N[C@@H](CCC(=O)O)C(=O)N[C@@H](Cc1ccccc1)C(=O)N[C@H](C(=O)N[C@@H](CC(N)=O)C(=O)N[C@@H](Cc1c[nH]c2ccccc12)C(=O)N[C@@H](CC(C)C)C(=O)N[C@H](C(=O)N[C@@H](C)C(=O)NCC(=O)NCC(=O)N1CCC[C@H]1C(=O)N[C@@H](CO)C(=O)N[C@@H](CO)C(=O)NCC(=O)N[C@@H](C)C(=O)N1CCC[C@H]1C(=O)N1CCC[C@H]1C(=O)N1CCC[C@H]1C(=O)N[C@@H](CO)C(N)=O)[C@@H](C)CC)C(C)C) [Compound No. 80]			0.008 nM	0.008 nM
H-Y[Aib]EGTFTSDYSIYLEKIAAQEFVNWLLAGKPSSGAPPPS-NH2 (not fully specified (residue 30); printed as H-YAibEGTFTSDYSIYLEKIAAQEFVNWLLAGK(OEG-OEG-yGlu-C18-OH) / PSSGAPPPS-NH2) [Compound No. 29]	0.24 nM	0.015 nM		
Y[Aib]EGTFTSDYSIYLEKIAAQEFVQWLLAGGPSSGAPPPS-NH2 (N-terminus assumed; SMILES CC[C@H](C)[C@H](NC(=O)[C@H](CCCCN)NC(=O)[C@H](CCC(=O)O)NC(=O)[C@H](CC(C)C)NC(=O)[C@H](Cc1ccc(O)cc1)NC(=O)[C@@H](NC(=O)[C@H](CO)NC(=O)[C@H](Cc1ccc(O)cc1)NC(=O)[C@H](CC(=O)O)NC(=O)[C@H](CO)NC(=O)[C@@H](NC(=O)[C@H](Cc1ccccc1)NC(=O)[C@@H](NC(=O)CNC(=O)[C@H](CCC(=O)O)NC(=O)C(C)(C)NC(=O)[C@@H](N)Cc1ccc(O)cc1)[C@@H](C)O)[C@@H](C)O)[C@@H](C)CC)C(=O)N[C@@H](C)C(=O)N[C@@H](C)C(=O)N[C@@H](CCC(N)=O)C(=O)N[C@@H](CCC(=O)O)C(=O)N[C@@H](Cc1ccccc1)C(=O)N[C@H](C(=O)N[C@@H](CCC(N)=O)C(=O)N[C@@H](Cc1c[nH]c2ccccc12)C(=O)N[C@@H](CC(C)C)C(=O)N[C@@H](CC(C)C)C(=O)N[C@@H](C)C(=O)NCC(=O)NCC(=O)N1CCC[C@H]1C(=O)N[C@@H](CO)C(=O)N[C@@H](CO)C(=O)NCC(=O)N[C@@H](C)C(=O)N1CCC[C@H]1C(=O)N1CCC[C@H]1C(=O)N1CCC[C@H]1C(=O)N[C@@H](CO)C(N)=O)C(C)C) [Compound No. 78]			0.008 nM	0.012 nM
Y[Aib]EGTFTSDYSIYLEEIAAKEFVNWLLAGGPSSGAPPPS-NH2 (N-terminus assumed; SMILES CC[C@H](C)[C@H](NC(=O)[C@H](CCC(=O)O)NC(=O)[C@H](CCC(=O)O)NC(=O)[C@H](CC(C)C)NC(=O)[C@H](Cc1ccc(O)cc1)NC(=O)[C@@H](NC(=O)[C@H](CO)NC(=O)[C@H](Cc1ccc(O)cc1)NC(=O)[C@H](CC(=O)O)NC(=O)[C@H](CO)NC(=O)[C@@H](NC(=O)[C@H](Cc1ccccc1)NC(=O)[C@@H](NC(=O)CNC(=O)[C@H](CCC(=O)O)NC(=O)C(C)(C)NC(=O)[C@@H](N)Cc1ccc(O)cc1)[C@@H](C)O)[C@@H](C)O)[C@@H](C)CC)C(=O)N[C@@H](C)C(=O)N[C@@H](C)C(=O)N[C@@H](CCCCN)C(=O)N[C@@H](CCC(=O)O)C(=O)N[C@@H](Cc1ccccc1)C(=O)N[C@H](C(=O)N[C@@H](CC(N)=O)C(=O)N[C@@H](Cc1c[nH]c2ccccc12)C(=O)N[C@@H](CC(C)C)C(=O)N[C@@H](CC(C)C)C(=O)N[C@@H](C)C(=O)NCC(=O)NCC(=O)N1CCC[C@H]1C(=O)N[C@@H](CO)C(=O)N[C@@H](CO)C(=O)NCC(=O)N[C@@H](C)C(=O)N1CCC[C@H]1C(=O)N1CCC[C@H]1C(=O)N1CCC[C@H]1C(=O)N[C@@H](CO)C(N)=O)C(C)C) [Compound No. 72]			0.017 nM	0.03 nM
Y[Aib]EGTFTSDYSIYLEKIAAQEFVNWLLAGGPSSGAPPPSK([AEEA-AEEA-γGlu-C20‑OH])-NH2 [Compound No. 74]	0.068 nM	0.046 nM		
H-Y[Aib]EGTFTSDYSIYLEKIAAQEFVNWLLAGGPSSGAPPPSK-NH2 (not fully specified (residue 40); printed as H-YAibEGTFTSDYSIYLEKIAAQEFVNWLLAGGPSSGAPPPSK / (OEG-OEG-yGlu-C18-OH)-NH2) [Compound No. 28]	0.074 nM	0.02 nM		
H-Y[Aib]EGTFTSDYSIYLEKEAAKEFVNWLLAGGPSSGAPPPSK-NH2 (not fully specified (residue 40); printed as H-YAibEGTFTSDYSIYLEKEAAKEFVNWLLAGGPSSGAPPPSK / (OEG-OEG-yGlu-C18-OH)-NH2) [Compound No. 25]	0.031 nM	0.059 nM		
Y[Aib]EGTFTSDYSIYLDKIAAQEFVNWLLAGGPSSGAPPPSK([AEEA-AEEA-γGlu-C18‑OH])-NH2 [Compound No. 62]	0.32 nM	0.045 nM		
H-Y[Aib]EGTFTSDYSIYLEKIAAKEFVNWLLAGGPSSGAPPPS-NH2 (not fully specified (residue 20); printed as H-YAibEGTFTSDYSIYLEKIAAK(OEG-OEG-yGlu-C18-OH)EFVNWLLAG / GPSSGAPPPS-NH2) [Compound No. 30]	0.058 nM	0.021 nM		

Reference: patent publication US20220168396A1, “MULTI-RECEPTOR AGONIST AND MEDICAL USE THEREOF” (published 2022)
